According to patent publication US20250340635A1 (HEFEI TG IMMUNOPHARMA, published 2025):

Key:
[1] = biological target: T1, NKp46 on human peripheral blood mononuclear cells (human, UniProt O76036 22-304); test: flow cytometry on human PBMCs
T1 construct: also called human PBMCs
Experimental: The binding characteristics of the three NKp46 antibodies (10D10 antibody, 10E10 antibody, and 3B9 antibody) obtained in Example 1 were detected using the flow cytometry assay. Murine NKp46 antibodies were added to human peripheral blood mononuclear cells. The signal intensity after antibody addition was used to determine the binding characteristics of the antibody to PBMCs. The specific steps were as follows:
Human peripheral blood mononuclear cells (PBMCs) were diluted to 2×10⁶ cells/mL with PBS and added to a 1.5 mL EP tube at 100 μL/tube. Goat serum was added at […] and was blocked at 4° C. for 30 min. NKp46 antibodies at different concentrations gradients were added and incubated at 4° C. for 30 min. The EP tube was added with 1 mL of PBS, and centrifuged at 3500 rpm at 4° C. for 5 min. The supernatant was discarded and the pellet was washed once more with PBS. After centrifugation, the supernatant was discarded, and the cells were resuspended with 100 μL/tube of PBS, and 0.1 μL/tube of Alexa-647-labeled goat anti-mouse secondary antibody (Biolegend) and 0.5 μL/tube of FITC-labeled CD3 antibody were added, and incubated at 4° C. in the dark for 30 min. The pellet was washed twice with PBS and the supernatant was discarded after centrifugation. The cells were resuspended with 200 μL/tube of PBS and detected by flow cytometry.

[2] = biological target: T2, cynomolgus monkey-His fusion protein (cynomolgus monkey, UniProt Q95JB9 22-257); test: ELISA, NKp46-His coated, anti-mouse HRP
T2 construct: extracellular domain; also called cynomolgus monkey NKp46; monkey NKp46; not shown: His tag
T2 sequence (Q95JB9 22-257): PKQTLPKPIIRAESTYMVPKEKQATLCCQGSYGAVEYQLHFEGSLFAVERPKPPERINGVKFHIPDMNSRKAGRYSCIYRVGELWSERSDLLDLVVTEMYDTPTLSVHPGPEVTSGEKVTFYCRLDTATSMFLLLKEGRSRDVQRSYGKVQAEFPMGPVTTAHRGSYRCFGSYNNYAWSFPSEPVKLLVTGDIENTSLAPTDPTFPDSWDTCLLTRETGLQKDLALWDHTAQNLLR
Description: (§1) The binding characteristics of the three NKp46 antibodies (10D10 antibody, 10E10 antibody, and 3B9 antibody) obtained in Example 1 were detected using the ELISA assay. The NKp46 extracellular region His tag fusion protein (NKp46-His) was coated into a 96-well plate. The signal intensity after antibody addition was used to determine the binding characteristics of the antibody to NKp46. The specific steps were as follows:
(§2) The human NKp46-His fusion protein (purchased from Acro) and cynomolgus monkey-His fusion protein (purchased from Acro) were diluted to 1 μg/mL with PBS buffer, added to a 96-well plate at 100 μL/well, and left overnight at 4° C. The PBS buffer solution was removed from the 96-well plate. The plate was washed 6 times with PBST (pH 7.2, PBS containing 0.1% Tween 20) buffer solution. PBS/10% BSA was added at 200 μL/well and incubated at 37° C. for 2 hours for blocking. The blocking solution was removed. The plate was washed 6 times with PBST. NKp46 antibody to be tested diluted to an appropriate concentration with PBST/0.05% BSA was added at 100 μL/well, and incubated for 1 h at 37° C. The reaction system was removed. The plate was washed 6 times with PBST. HRP (horseradish peroxidase)-labeled anti-mouse secondary antibody diluted with PBST/0.05% BSA was added at 100 μL/well and incubated for 1 h at 37° C. The plate was washed 6 times with PBST, and TMB (tetramethylbenzidine) was added at 80 μL/well. After 3 min of incubation at room temperature, 4M sulfuric acid was added at 80 μL/well to terminate the reaction. The absorbance at […] was read with a microplate reader.

[3] = biological target: T3, human NKp46-His fusion protein (human, UniProt O76036 22-258); test: ELISA, NKp46-His coated, anti-mouse HRP
T3 construct: Bought from Acro; also called NKp46 extracellular region His tag fusion protein; not shown: His tag
T3 sequence (O76036 22-258 Q82K): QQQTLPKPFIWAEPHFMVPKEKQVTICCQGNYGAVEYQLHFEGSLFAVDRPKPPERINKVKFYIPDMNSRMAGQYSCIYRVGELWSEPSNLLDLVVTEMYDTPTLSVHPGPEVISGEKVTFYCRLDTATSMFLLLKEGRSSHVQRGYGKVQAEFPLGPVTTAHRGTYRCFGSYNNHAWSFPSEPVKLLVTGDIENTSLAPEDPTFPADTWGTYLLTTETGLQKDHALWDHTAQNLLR
Description: as §1, §2

[4] = biological target: T1, NKp46 on human peripheral blood …; test: flow cytometry on PBMCs
Experimental: (§3) The binding characteristics of the two human-murine chimeric NKp46 antibodies (i.e., human-murine chimeric 10D10 antibody and human-murine chimeric 3B9 antibody) prepared in Example 4 were detected using the flow cytometry assay. Human-murine chimeric NKp46 antibodies were added to human and cynomolgus monkey peripheral blood mononuclear cells. The signal intensity after antibody addition was used to determine the binding characteristics of the antibody to PBMCs. The specific steps were as follows:
(§4) Human and cynomolgus monkey peripheral blood mononuclear cells (PBMCs) were diluted to 2×10⁶ cells/mL with PBS and added to 1.5 mL EP tube at 100 μL/tube. Goat serum was added at 10 μL/tube and was blocked at 4° C. for 30 min. NKp46 antibodies at different concentrations gradients and the positive control antibody (hIgG1 LALA) were added and incubated at 4° C. for 30 min. The EP tube was added with 1 mL of PBS, and centrifuged at 3500 rpm at 4° C. for 5 min. The supernatant was discarded and the pellet was washed once more with PBS. After centrifugation, the supernatant was discarded, and the cells were resuspended with 100 IL/tube of PBS, and 0.1 μL/tube of Alexa-647 labeled rat anti-human IgG-Fc secondary antibody (Biolegend) and 0.5 μL/tube BV510-labeled CD16 antibody were added, and incubated at 4° C. in the dark for 30 min. The pellet was washed twice with PBS and the supernatant was discarded after centrifugation. The cells were resuspended with 200 μL/tube of PBS and detected by flow cytometry.

[5] = biological target: T4, NKp46 on cynomolgus monkey peripheral blood mononuclear cells (cynomolgus monkey, UniProt Q95JB9 22-306); test: flow cytometry on PBMCs
T4 construct: whole, on cells; also called cynomolgus monkey PBMCs
T4 sequence (Q95JB9 22-306): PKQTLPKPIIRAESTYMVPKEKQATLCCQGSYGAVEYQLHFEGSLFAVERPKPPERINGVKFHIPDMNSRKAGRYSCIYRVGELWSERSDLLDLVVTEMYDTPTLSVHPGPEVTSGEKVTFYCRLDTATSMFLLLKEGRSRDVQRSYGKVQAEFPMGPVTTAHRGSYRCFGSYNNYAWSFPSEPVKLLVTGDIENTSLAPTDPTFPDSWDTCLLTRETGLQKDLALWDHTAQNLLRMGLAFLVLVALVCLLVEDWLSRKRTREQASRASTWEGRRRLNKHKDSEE
Experimental: as §3, §4

[6] = biological target: T2, cynomolgus monkey-His fusion protein; test: ELISA, NKp46-His coated, anti-human HRP
[7] = biological target: T3, human NKp46-His fusion protein; test: ELISA, NKp46-His coated, anti-human HRP

Measured: binding result

T1 sequence (O76036 22-304 Q82K limits assumed): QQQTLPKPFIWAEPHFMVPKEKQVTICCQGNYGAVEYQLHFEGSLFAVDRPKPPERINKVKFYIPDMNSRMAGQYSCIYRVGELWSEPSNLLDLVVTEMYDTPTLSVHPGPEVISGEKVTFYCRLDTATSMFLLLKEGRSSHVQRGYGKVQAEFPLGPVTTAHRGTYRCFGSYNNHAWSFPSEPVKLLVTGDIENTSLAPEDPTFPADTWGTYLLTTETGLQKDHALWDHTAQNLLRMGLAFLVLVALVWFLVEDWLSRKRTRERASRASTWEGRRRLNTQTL

B1: murine 10E10 antibody (antibody, mouse IgG2a, kappa)
heavy: QVQLQQSGDDLVKPGASVKLSCKASGYTFTSYWINWIKQRPGQGLEWIGRVVPGSGRTYYNEIFKGKAILTVDSYSNTAYIQLRSVSSEDSAVYFCARVGGYWDYWGQGITLTVSSAKTTAPSVYPLAPVCGDTTGSSVTLGCLVKGYFPEPVTLTWNSGSLSSGVHTFPAVLQSDLYTLSSSVTVTSSTWPSQSITCNVAHPASSTKVDKKIEPRGPTIKPCPPCKCPAPNLLGGPSVFIFPPKIKDVLMISLSPIVTCVVVDVSEDDPDVQISWFVNNVEVHTAQTQTHREDYNSTLRVVSALPIQHQDWMSGKEFKCKVNNKDLPAPIERTISKPKGSVRAPQVYVLPPPEEEMTKKQVTLTCMVTDFMPEDIYVEWTNNGKTELNYKNTEPVLDSDGSYFMYSKLRVEKKNWVERNSYSCSVVHEGLHNHHTTKSFSRTPGK
light: QIVLSQSPAILSASPGEKVTMACRASSSVNYIHWYQQRPGSSPKPWIYATSSLASGVPARFSGSGSGTSYSLTISRVEAEDAATYYCQQWSSNPYTFGGGTKLEMKRADAAPTVSIFPPSSEQLTSGGASVVCFLNNFYPKDINVKWKIDGSERQNGVLNSWTDQDSKDSTYSMSSTLTLTKDEYERHNSYTCEATHKTSTSPIVKSFNRNEC
notes: Murine monoclonal antibody from a hybridoma
binds: [1] | [2] | [3]

B2: human-murine chimeric 10D10 antibody (antibody, human IgG1, kappa, L234A L235A)
heavy: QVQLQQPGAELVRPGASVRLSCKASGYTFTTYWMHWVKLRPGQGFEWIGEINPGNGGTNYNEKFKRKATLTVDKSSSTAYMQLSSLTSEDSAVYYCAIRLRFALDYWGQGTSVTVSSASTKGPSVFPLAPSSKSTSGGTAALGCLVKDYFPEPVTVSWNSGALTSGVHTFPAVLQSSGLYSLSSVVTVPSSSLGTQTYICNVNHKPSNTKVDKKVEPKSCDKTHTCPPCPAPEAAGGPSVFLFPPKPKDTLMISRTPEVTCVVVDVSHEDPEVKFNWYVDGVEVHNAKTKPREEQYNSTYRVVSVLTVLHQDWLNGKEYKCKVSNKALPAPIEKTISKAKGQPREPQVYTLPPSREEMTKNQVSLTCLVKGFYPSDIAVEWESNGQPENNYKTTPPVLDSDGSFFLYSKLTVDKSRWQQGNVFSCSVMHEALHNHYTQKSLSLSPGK
light: DIQMTQTTSSLSASLGDRVTISCRASQDVRNFLNWFQQKPDGTVKLLIYFTSRLHSGVPSRFSGSGSGTDYSLTISNLEQEDIATYFCQQGNTLPPTFGGGTKLEIKRTVAAPSVFIFPPSDEQLKSGTASVVCLLNNFYPREAKVQWKVDNALQSGNSQESVTEQDSKDSTYSLSSTLTLSKADYEKHKVYACEVTHQGLSSPVTKSFNRGEC
notes: Human IgG1 LALA constant region, made in ExpiCHO-S cells; also called 10D10-hIgG1LALA
binds: [4] | [5] | [6] | [7]

B3: human-murine chimeric 10E10 antibody (antibody, human IgG1, kappa, L234A L235A)
heavy: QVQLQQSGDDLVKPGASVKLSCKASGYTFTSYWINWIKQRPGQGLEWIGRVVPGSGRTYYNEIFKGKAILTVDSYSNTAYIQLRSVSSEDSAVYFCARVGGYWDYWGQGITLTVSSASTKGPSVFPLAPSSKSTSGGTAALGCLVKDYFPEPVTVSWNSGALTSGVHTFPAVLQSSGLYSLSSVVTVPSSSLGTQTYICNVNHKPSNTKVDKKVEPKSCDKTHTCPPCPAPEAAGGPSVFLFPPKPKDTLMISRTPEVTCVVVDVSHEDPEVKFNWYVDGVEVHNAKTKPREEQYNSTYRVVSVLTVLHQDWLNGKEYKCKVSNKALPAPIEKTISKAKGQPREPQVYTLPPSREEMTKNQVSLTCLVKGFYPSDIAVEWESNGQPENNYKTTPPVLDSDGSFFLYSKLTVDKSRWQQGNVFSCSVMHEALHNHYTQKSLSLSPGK
light: QIVLSQSPAILSASPGEKVTMACRASSSVNYIHWYQQRPGSSPKPWIYATSSLASGVPARFSGSGSGTSYSLTISRVEAEDAATYYCQQWSSNPYTFGGGTKLEMKRTVAAPSVFIFPPSDEQLKSGTASVVCLLNNFYPREAKVQWKVDNALQSGNSQESVTEQDSKDSTYSLSSTLTLSKADYEKHKVYACEVTHQGLSSPVTKSFNRGEC
notes: Human IgG1 LALA constant region, made in ExpiCHO-S cells; also called 10E10-hIgG1LALA
binds: [6] | [7]

B4: murine 10D10 antibody (antibody, mouse IgG2a, kappa)
heavy: QVQLQQPGAELVRPGASVRLSCKASGYTFTTYWMHWVKLRPGQGFEWIGEINPGNGGTNYNEKFKRKATLTVDKSSSTAYMQLSSLTSEDSAVYYCAIRLRFALDYWGQGTSVTVSSAKTTAPSVYPLAPVCGDTTGSSVTLGCLVKGYFPEPVTLTWNSGSLSSGVHTFPAVLQSDLYTLSSSVTVTSSTWPSQSITCNVAHPASSTKVDKKIEPRGPTIKPCPPCKCPAPNLLGGPSVFIFPPKIKDVLMISLSPIVTCVVVDVSEDDPDVQISWFVNNVEVHTAQTQTHREDYNSTLRVVSALPIQHQDWMSGKEFKCKVNNKDLPAPIERTISKPKGSVRAPQVYVLPPPEEEMTKKQVTLTCMVTDFMPEDIYVEWTNNGKTELNYKNTEPVLDSDGSYFMYSKLRVEKKNWVERNSYSCSVVHEGLHNHHTTKSFSRTPGK
light: DIQMTQTTSSLSASLGDRVTISCRASQDVRNFLNWFQQKPDGTVKLLIYFTSRLHSGVPSRFSGSGSGTDYSLTISNLEQEDIATYFCQQGNTLPPTFGGGTKLEIKRADAAPTVSIFPPSSEQLTSGGASVVCFLNNFYPKDINVKWKIDGSERQNGVLNSWTDQDSKDSTYSMSSTLTLTKDEYERHNSYTCEATHKTSTSPIVKSFNRNEC
notes: as for B1
binds: [1] | [2] | [3]

B5: human-murine chimeric 3B9 antibody (antibody, human IgG1, kappa, L234A L235A)
heavy: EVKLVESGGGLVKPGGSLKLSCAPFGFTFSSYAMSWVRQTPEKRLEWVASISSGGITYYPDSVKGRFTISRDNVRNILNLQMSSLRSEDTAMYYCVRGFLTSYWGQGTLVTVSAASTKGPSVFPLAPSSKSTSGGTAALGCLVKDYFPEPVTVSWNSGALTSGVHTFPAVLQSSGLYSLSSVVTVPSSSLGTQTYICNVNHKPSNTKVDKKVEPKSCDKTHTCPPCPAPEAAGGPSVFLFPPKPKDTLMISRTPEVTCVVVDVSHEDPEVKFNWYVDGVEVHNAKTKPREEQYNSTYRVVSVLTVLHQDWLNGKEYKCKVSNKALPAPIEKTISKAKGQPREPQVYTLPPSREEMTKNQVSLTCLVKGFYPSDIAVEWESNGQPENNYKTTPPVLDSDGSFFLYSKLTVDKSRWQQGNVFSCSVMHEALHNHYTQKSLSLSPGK
light: DVVMTQTPLTLSVTIGQPASISCKSSQSLLNSDGKTYLNWLLQRPGQSPKRLISLVSKLDSGVPDRFTGSGSGTDFTLKISRVEAEDLGVYYCWQGTHFWTFGGGTKLEIKRTVAAPSVFIFPPSDEQLKSGTASVVCLLNNFYPREAKVQWKVDNALQSGNSQESVTEQDSKDSTYSLSSTLTLSKADYEKHKVYACEVTHQGLSSPVTKSFNRGEC
notes: Human IgG1 LALA constant region, made in ExpiCHO-S cells; also called 3B9-hIgG1LALA
binds: [4] | [5] | [6] | [7]

B6: humanized 10D10 antibody (antibody, human IgG1, kappa, L234A L235A, V domains shown)
VH: QVQLVQSGAEVKKPGASVKVSCKASGYTFTTYWMHWVKQAPGQGLEWIGEINPGNGGTNYNEKFKRRATMTVDKSISTAYMELSRLRSDDTAVYYCAIRLRFALDYWGQGTLVTVSS
VL: DIQMTQSPSSLSASVGDRVTITCRASQDVRNFLNWFQQKPGKAPKLLIYFTSRLHSGVPSRFSGSGSGTDYTFTISSLQPEDIATYFCQQGNTLPPTFGGGTKLEIKR
notes: human IgG1 LALA; also called h10D10-hIgG1LALA; humanized NKp46 antibody
binds: [6] | [7]

B7: murine 3B9 antibody (antibody, mouse IgG2a, kappa)
heavy: EVKLVESGGGLVKPGGSLKLSCAPFGFTFSSYAMSWVRQTPEKRLEWVASISSGGITYYPDSVKGRFTISRDNVRNILNLQMSSLRSEDTAMYYCVRGFLTSYWGQGTLVTVSAAKTTAPSVYPLAPVCGDTTGSSVTLGCLVKGYFPEPVTLTWNSGSLSSGVHTFPAVLQSDLYTLSSSVTVTSSTWPSQSITCNVAHPASSTKVDKKIEPRGPTIKPCPPCKCPAPNLLGGPSVFIFPPKIKDVLMISLSPIVTCVVVDVSEDDPDVQISWFVNNVEVHTAQTQTHREDYNSTLRVVSALPIQHQDWMSGKEFKCKVNNKDLPAPIERTISKPKGSVRAPQVYVLPPPEEEMTKKQVTLTCMVTDFMPEDIYVEWTNNGKTELNYKNTEPVLDSDGSYFMYSKLRVEKKNWVERNSYSCSVVHEGLHNHHTTKSFSRTPGK
light: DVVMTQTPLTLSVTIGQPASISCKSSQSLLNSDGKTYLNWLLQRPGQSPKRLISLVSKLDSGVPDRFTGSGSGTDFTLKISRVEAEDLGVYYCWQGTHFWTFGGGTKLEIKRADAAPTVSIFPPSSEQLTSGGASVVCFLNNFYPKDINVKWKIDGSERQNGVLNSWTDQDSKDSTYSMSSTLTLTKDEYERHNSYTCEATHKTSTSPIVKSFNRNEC
notes: as for B1
binds: [1] | [2] | [3]
